The target of assay [1] is T1, human amylin receptor (amylin 3(a) receptor: human calcitonin receptor co-expressed with RAMP-3) (human, UniProt P30988 25-474; O60896 24-148, limits assumed).
T1 sequence (looked up) 1: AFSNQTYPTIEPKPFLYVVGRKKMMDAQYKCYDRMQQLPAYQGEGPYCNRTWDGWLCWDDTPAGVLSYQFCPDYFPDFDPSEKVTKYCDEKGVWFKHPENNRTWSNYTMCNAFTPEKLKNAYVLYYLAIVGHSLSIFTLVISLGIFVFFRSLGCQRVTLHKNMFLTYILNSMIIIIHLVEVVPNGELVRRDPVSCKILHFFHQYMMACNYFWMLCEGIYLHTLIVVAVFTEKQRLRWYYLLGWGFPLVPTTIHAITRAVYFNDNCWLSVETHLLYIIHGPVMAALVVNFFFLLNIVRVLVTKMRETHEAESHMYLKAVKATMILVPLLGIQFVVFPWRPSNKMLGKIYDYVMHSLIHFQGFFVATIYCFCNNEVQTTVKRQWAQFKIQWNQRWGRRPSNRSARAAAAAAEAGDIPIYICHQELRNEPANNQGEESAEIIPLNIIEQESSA
T1 sequence (looked up) 2: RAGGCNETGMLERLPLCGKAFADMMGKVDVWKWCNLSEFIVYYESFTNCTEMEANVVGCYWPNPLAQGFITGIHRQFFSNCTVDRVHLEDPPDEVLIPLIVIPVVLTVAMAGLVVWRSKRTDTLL
Put plainly: cell-based or functional assay.

Assay [2] concerns the target T2, human calcitonin receptor (human, UniProt P30988 25-474).
T2 sequence (looked up): T1 sequence (looked up) 1
Put plainly: cell-based or functional assay.

The source of these data is patent US20140087995A1 (published 2014).

Numbered stars: 1 amine (or outer) side, 2 acyl side, 3 side chain; on linkers, the order of the positions; unused ones are H or OH. Bridge positions count the residues as written; N and C are the ends. Side chains are listed from the residue outwards. Ends that are not written are not given here. * marks the point of attachment. C20 diacid = O=C(O)CCCCCCCCCCCCCCCCCCC(=O)*; γGlu = O=C(O)[C@H](CCC(=O)[*:2])N[*:1]; AEEA = NCCOCCOCC(=O)O

B1: N^ε1-[2-[2-[2-[[(4S)-4-carboxy-4-(19-carboxynonadecanoylamino)butanoyl]amino]ethoxy]ethoxy]acetyl]-[His14,Arg17,Pro21,Pro27,Pro34]-h-amylin (peptide)
peptide: K([AEEA-γGlu-C20 diacid])CNTATCATQRLAHFLRHSSPNFGAIPSSTNVGPNTY-NH2
modifications: disulfide 2-7; N-terminus assumed
SMILES: CC[C@H](C)[C@H](NC(=O)[C@H](C)NC(=O)CNC(=O)[C@H](Cc1ccccc1)NC(=O)[C@H](CC(N)=O)NC(=O)[C@@H]1CCCN1C(=O)[C@H](CO)NC(=O)[C@H](CO)NC(=O)[C@H](Cc1c[nH]cn1)NC(=O)[C@H](CCCNC(=N)N)NC(=O)[C@H](CC(C)C)NC(=O)[C@H](Cc1ccccc1)NC(=O)[C@H](Cc1c[nH]cn1)NC(=O)[C@H](C)NC(=O)[C@H](CC(C)C)NC(=O)[C@H](CCCNC(=N)N)NC(=O)[C@H](CCC(N)=O)NC(=O)[C@@H](NC(=O)[C@H](C)NC(=O)[C@@H]1CSSC[C@H](NC(=O)[C@@H](N)CCCCNC(=O)COCCOCCNC(=O)CC[C@H](NC(=O)CCCCCCCCCCCCCCCCCCC(=O)O)C(=O)O)C(=O)N[C@@H](CC(N)=O)C(=O)N[C@@H]([C@@H](C)O)C(=O)N[C@@H](C)C(=O)N[C@@H]([C@@H](C)O)C(=O)N1)[C@@H](C)O)C(=O)N1CCC[C@H]1C(=O)N[C@@H](CO)C(=O)N[C@@H](CO)C(=O)N[C@H](C(=O)N[C@@H](CC(N)=O)C(=O)N[C@H](C(=O)NCC(=O)N1CCC[C@H]1C(=O)N[C@@H](CC(N)=O)C(=O)N[C@H](C(=O)N[C@@H](Cc1ccc(O)cc1)C(N)=O)[C@@H](C)O)C(C)C)[C@@H](C)O
notes: also called compound 68
Take B1: the “hAmylin-R funct. EC50” value in assay [1] is 0.054 nM. Further, in assay [2], the “Ratio hCT/hAmylin funct. (hCTR EC50 against hAmylin-R EC50)” value was 17.4 and the “hCTR funct. EC50” value came to 0.932 nM.

B2: N^ε1-[2-[2-[2-[[(4S)-4-carboxy-4-(19-carboxynonadecanoylamino)butanoyl]amino]ethoxy]ethoxy]acetyl]-[Thr14,Arg17,Pro21,Pro27,Pro31]-h-amylin (peptide)
peptide: K([AEEA-γGlu-C20 diacid])CNTATCATQRLATFLRHSSPNFGAIPSSTPVGSNTY-NH2
modifications: disulfide 2-7; N-terminus assumed
SMILES: CC[C@H](C)[C@H](NC(=O)[C@H](C)NC(=O)CNC(=O)[C@H](Cc1ccccc1)NC(=O)[C@H](CC(N)=O)NC(=O)[C@@H]1CCCN1C(=O)[C@H](CO)NC(=O)[C@H](CO)NC(=O)[C@H](Cc1c[nH]cn1)NC(=O)[C@H](CCCNC(=N)N)NC(=O)[C@H](CC(C)C)NC(=O)[C@H](Cc1ccccc1)NC(=O)[C@@H](NC(=O)[C@H](C)NC(=O)[C@H](CC(C)C)NC(=O)[C@H](CCCNC(=N)N)NC(=O)[C@H](CCC(N)=O)NC(=O)[C@@H](NC(=O)[C@H](C)NC(=O)[C@@H]1CSSC[C@H](NC(=O)[C@@H](N)CCCCNC(=O)COCCOCCNC(=O)CC[C@H](NC(=O)CCCCCCCCCCCCCCCCCCC(=O)O)C(=O)O)C(=O)N[C@@H](CC(N)=O)C(=O)N[C@@H]([C@@H](C)O)C(=O)N[C@@H](C)C(=O)N[C@@H]([C@@H](C)O)C(=O)N1)[C@@H](C)O)[C@@H](C)O)C(=O)N1CCC[C@H]1C(=O)N[C@@H](CO)C(=O)N[C@@H](CO)C(=O)N[C@H](C(=O)N1CCC[C@H]1C(=O)N[C@H](C(=O)NCC(=O)N[C@@H](CO)C(=O)N[C@@H](CC(N)=O)C(=O)N[C@H](C(=O)N[C@@H](Cc1ccc(O)cc1)C(N)=O)[C@@H](C)O)C(C)C)[C@@H](C)O
notes: also called compound 75
As for B2, in assay [1], the “hAmylin-R funct. EC50” value is 0.296 nM. In addition, in assay [2], the “Ratio hCT/hAmylin funct. (hCTR EC50 against hAmylin-R EC50)” value worked out at 30.6 and the “hCTR funct. EC50” value stood at 9.07 nM.

B3: N^ε1-[2-[2-[2-[[(4S)-4-carboxy-4-(19-carboxynonadecanoylamino)butanoyl]amino]ethoxy]ethoxy]acetyl]-[Lys14,Arg17,Pro21,Pro27,Pro31]-h-amylin (peptide)
peptide: K([AEEA-γGlu-C20 diacid])CNTATCATQRLAKFLRHSSPNFGAIPSSTPVGSNTY-NH2
modifications: disulfide 2-7; N-terminus assumed
SMILES: CC[C@H](C)[C@H](NC(=O)[C@H](C)NC(=O)CNC(=O)[C@H](Cc1ccccc1)NC(=O)[C@H](CC(N)=O)NC(=O)[C@@H]1CCCN1C(=O)[C@H](CO)NC(=O)[C@H](CO)NC(=O)[C@H](Cc1c[nH]cn1)NC(=O)[C@H](CCCNC(=N)N)NC(=O)[C@H](CC(C)C)NC(=O)[C@H](Cc1ccccc1)NC(=O)[C@H](CCCCN)NC(=O)[C@H](C)NC(=O)[C@H](CC(C)C)NC(=O)[C@H](CCCNC(=N)N)NC(=O)[C@H](CCC(N)=O)NC(=O)[C@@H](NC(=O)[C@H](C)NC(=O)[C@@H]1CSSC[C@H](NC(=O)[C@@H](N)CCCCNC(=O)COCCOCCNC(=O)CC[C@H](NC(=O)CCCCCCCCCCCCCCCCCCC(=O)O)C(=O)O)C(=O)N[C@@H](CC(N)=O)C(=O)N[C@@H]([C@@H](C)O)C(=O)N[C@@H](C)C(=O)N[C@@H]([C@@H](C)O)C(=O)N1)[C@@H](C)O)C(=O)N1CCC[C@H]1C(=O)N[C@@H](CO)C(=O)N[C@@H](CO)C(=O)N[C@H](C(=O)N1CCC[C@H]1C(=O)N[C@H](C(=O)NCC(=O)N[C@@H](CO)C(=O)N[C@@H](CC(N)=O)C(=O)N[C@H](C(=O)N[C@@H](Cc1ccc(O)cc1)C(N)=O)[C@@H](C)O)C(C)C)[C@@H](C)O
notes: also called compound 74
Regarding B3, the “hAmylin-R funct. EC50” value in assay [1] was 0.666 nM. For the same molecule, in assay [2], the “Ratio hCT/hAmylin funct. (hCTR EC50 against hAmylin-R EC50)” value turned out to be 56.3 and the “hCTR funct. EC50” value amounted to 37.5 nM.

B4: N^ε1-[2-[2-[2-[[(4S)-4-carboxy-4-(19-carboxynonadecanoylamino)butanoyl]amino]ethoxy]ethoxy]acetyl]-[His14,Arg17,Pro21,Pro27]-h-amylin (peptide)
peptide: K([AEEA-γGlu-C20 diacid])CNTATCATQRLAHFLRHSSPNFGAIPSSTNVGSNTY-NH2
modifications: disulfide 2-7; N-terminus assumed
SMILES: CC[C@H](C)[C@H](NC(=O)[C@H](C)NC(=O)CNC(=O)[C@H](Cc1ccccc1)NC(=O)[C@H](CC(N)=O)NC(=O)[C@@H]1CCCN1C(=O)[C@H](CO)NC(=O)[C@H](CO)NC(=O)[C@H](Cc1c[nH]cn1)NC(=O)[C@H](CCCNC(=N)N)NC(=O)[C@H](CC(C)C)NC(=O)[C@H](Cc1ccccc1)NC(=O)[C@H](Cc1c[nH]cn1)NC(=O)[C@H](C)NC(=O)[C@H](CC(C)C)NC(=O)[C@H](CCCNC(=N)N)NC(=O)[C@H](CCC(N)=O)NC(=O)[C@@H](NC(=O)[C@H](C)NC(=O)[C@@H]1CSSC[C@H](NC(=O)[C@@H](N)CCCCNC(=O)COCCOCCNC(=O)CC[C@H](NC(=O)CCCCCCCCCCCCCCCCCCC(=O)O)C(=O)O)C(=O)N[C@@H](CC(N)=O)C(=O)N[C@@H]([C@@H](C)O)C(=O)N[C@@H](C)C(=O)N[C@@H]([C@@H](C)O)C(=O)N1)[C@@H](C)O)C(=O)N1CCC[C@H]1C(=O)N[C@@H](CO)C(=O)N[C@@H](CO)C(=O)N[C@H](C(=O)N[C@@H](CC(N)=O)C(=O)N[C@H](C(=O)NCC(=O)N[C@@H](CO)C(=O)N[C@@H](CC(N)=O)C(=O)N[C@H](C(=O)N[C@@H](Cc1ccc(O)cc1)C(N)=O)[C@@H](C)O)C(C)C)[C@@H](C)O
notes: also called compound 69
For the molecule B4, in assay [1], the “hAmylin-R funct. EC50” value was 0.094 nM. In addition, in assay [2], the “Ratio hCT/hAmylin funct. (hCTR EC50 against hAmylin-R EC50)” value amounted to 13.3 and the “hCTR funct. EC50” value worked out at 1.25 nM.

B5: N^ε1-[(4S)-4-carboxy-4-(19-carboxynonadecanoylamino)butanoyl]-[Arg14,Arg17,Pro21,Pro27,Pro31]-h-amylin (peptide)
peptide: K([γGlu-C20 diacid])CNTATCATQRLARFLRHSSPNFGAIPSSTPVGSNTY-NH2
modifications: disulfide 2-7; N-terminus assumed
SMILES: CC[C@H](C)[C@H](NC(=O)[C@H](C)NC(=O)CNC(=O)[C@H](Cc1ccccc1)NC(=O)[C@H](CC(N)=O)NC(=O)[C@@H]1CCCN1C(=O)[C@H](CO)NC(=O)[C@H](CO)NC(=O)[C@H](Cc1c[nH]cn1)NC(=O)[C@H](CCCNC(=N)N)NC(=O)[C@H](CC(C)C)NC(=O)[C@H](Cc1ccccc1)NC(=O)[C@H](CCCNC(=N)N)NC(=O)[C@H](C)NC(=O)[C@H](CC(C)C)NC(=O)[C@H](CCCNC(=N)N)NC(=O)[C@H](CCC(N)=O)NC(=O)[C@@H](NC(=O)[C@H](C)NC(=O)[C@@H]1CSSC[C@H](NC(=O)[C@@H](N)CCCCNC(=O)CC[C@H](NC(=O)CCCCCCCCCCCCCCCCCCC(=O)O)C(=O)O)C(=O)N[C@@H](CC(N)=O)C(=O)N[C@@H]([C@@H](C)O)C(=O)N[C@@H](C)C(=O)N[C@@H]([C@@H](C)O)C(=O)N1)[C@@H](C)O)C(=O)N1CCC[C@H]1C(=O)N[C@@H](CO)C(=O)N[C@@H](CO)C(=O)N[C@H](C(=O)N1CCC[C@H]1C(=O)N[C@H](C(=O)NCC(=O)N[C@@H](CO)C(=O)N[C@@H](CC(N)=O)C(=O)N[C@H](C(=O)N[C@@H](Cc1ccc(O)cc1)C(N)=O)[C@@H](C)O)C(C)C)[C@@H](C)O
notes: also called compound 63
Regarding B5, the “hAmylin-R funct. EC50” value in assay [1] turned out to be 0.037 nM. Besides, in assay [2], the “Ratio hCT/hAmylin funct. (hCTR EC50 against hAmylin-R EC50)” value stood at 139 and the “hCTR funct. EC50” value came out at 5.13 nM.

B6: N^ε1-[2-[2-[2-[[(4S)-4-carboxy-4-(19-carboxynonadecanoylamino)butanoyl]amino]ethoxy]ethoxy]acetyl]-[Ser14,Arg17,Pro21,Pro27,Pro31]-h-amylin (peptide)
peptide: K([AEEA-γGlu-C20 diacid])CNTATCATQRLASFLRHSSPNFGAIPSSTPVGSNTY-NH2
modifications: disulfide 2-7; N-terminus assumed
SMILES: CC[C@H](C)[C@H](NC(=O)[C@H](C)NC(=O)CNC(=O)[C@H](Cc1ccccc1)NC(=O)[C@H](CC(N)=O)NC(=O)[C@@H]1CCCN1C(=O)[C@H](CO)NC(=O)[C@H](CO)NC(=O)[C@H](Cc1c[nH]cn1)NC(=O)[C@H](CCCNC(=N)N)NC(=O)[C@H](CC(C)C)NC(=O)[C@H](Cc1ccccc1)NC(=O)[C@H](CO)NC(=O)[C@H](C)NC(=O)[C@H](CC(C)C)NC(=O)[C@H](CCCNC(=N)N)NC(=O)[C@H](CCC(N)=O)NC(=O)[C@@H](NC(=O)[C@H](C)NC(=O)[C@@H]1CSSC[C@H](NC(=O)[C@@H](N)CCCCNC(=O)COCCOCCNC(=O)CC[C@H](NC(=O)CCCCCCCCCCCCCCCCCCC(=O)O)C(=O)O)C(=O)N[C@@H](CC(N)=O)C(=O)N[C@@H]([C@@H](C)O)C(=O)N[C@@H](C)C(=O)N[C@@H]([C@@H](C)O)C(=O)N1)[C@@H](C)O)C(=O)N1CCC[C@H]1C(=O)N[C@@H](CO)C(=O)N[C@@H](CO)C(=O)N[C@H](C(=O)N1CCC[C@H]1C(=O)N[C@H](C(=O)NCC(=O)N[C@@H](CO)C(=O)N[C@@H](CC(N)=O)C(=O)N[C@H](C(=O)N[C@@H](Cc1ccc(O)cc1)C(N)=O)[C@@H](C)O)C(C)C)[C@@H](C)O
notes: also called compound 73
On to B6, for which the “hAmylin-R funct. EC50” value in assay [1] is 0.085 nM. For the same molecule, in assay [2], the “Ratio hCT/hAmylin funct. (hCTR EC50 against hAmylin-R EC50)” value came to 11.3 and the “hCTR funct. EC50” value turned out to be 0.961 nM.
